Data published in patent US20180155451A1 (published 2018).

T1: FcγRIIb (human, UniProt P31994 43-217)
T1 construct: extracellular domain; also called FcgRIIb; 2b; not shown: His tag at the C terminus
T1 sequence (looked up): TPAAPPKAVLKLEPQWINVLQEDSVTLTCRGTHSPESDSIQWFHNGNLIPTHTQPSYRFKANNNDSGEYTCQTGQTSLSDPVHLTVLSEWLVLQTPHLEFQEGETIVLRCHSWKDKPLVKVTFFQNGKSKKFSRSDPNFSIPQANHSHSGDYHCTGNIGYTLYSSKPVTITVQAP

T2: FcγRIIb (human, UniProt P31994 43-217)
T2 construct: extracellular domain; Soluble extracellular domain with C-terminal His tag, used as analyte in Biacore; also called FcgRIIb; 2b; not shown: His tag attached to the C terminus
T2 sequence (looked up): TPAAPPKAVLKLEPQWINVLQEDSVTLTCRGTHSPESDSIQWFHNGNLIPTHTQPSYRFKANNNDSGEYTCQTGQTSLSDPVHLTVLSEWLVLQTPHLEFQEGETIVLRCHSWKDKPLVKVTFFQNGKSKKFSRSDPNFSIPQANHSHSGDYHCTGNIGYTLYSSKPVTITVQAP


Tests used:
FcγRIa [1] = biological target: T3, FcγRIa (human, UniProt P12314 16-292); experiment: SPR; He/Con_1a divided by He/Con_2b (FcγRIIb as reference)
T3 construct: extracellular domain; also called FcgRI; 1a; not shown: His tag at the C terminus
T3 sequence (P12314 16-292): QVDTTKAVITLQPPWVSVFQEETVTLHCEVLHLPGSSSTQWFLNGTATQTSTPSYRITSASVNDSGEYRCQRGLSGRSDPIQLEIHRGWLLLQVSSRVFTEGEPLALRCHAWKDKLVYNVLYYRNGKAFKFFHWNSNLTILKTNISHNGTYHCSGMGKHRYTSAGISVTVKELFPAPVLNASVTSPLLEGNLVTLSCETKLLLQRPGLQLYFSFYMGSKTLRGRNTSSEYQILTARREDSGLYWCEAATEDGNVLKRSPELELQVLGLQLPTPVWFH

FcγRIIb [2] = biological target: T1, FcγRIIb; experiment: SPR (Biacore), captured antibody, soluble FcγR; relative to GpH7-A5/GpH7-B3/GpL16-k0
FcγRIa [3] = biological target: T3, FcγRIa; experiment: as above
FcγRIa [4] = biological target: T4, FcγRIa (human, UniProt P12314 16-292); experiment: SPR (Biacore); He/Con_1a divided by He/Con_2b (FcγRIa against FcγRIIb)
T4 construct: extracellular domain; Soluble extracellular domain with C-terminal His tag, used as analyte in Biacore; also called FcgRI; 1a; not shown: His tag attached to the C terminus
T4 sequence (P12314 16-292): as above

FcγRIa [5] = biological target: T4, FcγRIa; experiment: SPR (Biacore), antibody captured on antigen peptide, FcγR as analyte; relative to GpH7-A5/GpH7-B3/GpL16-k0 = 100
FcγRIIb [6] = biological target: T2, FcγRIIb; experiment: as above

Row | Binder | Ia/IIb He_1a/2b (FcγRIa [1]) [ratio] | He/Con_2b (FcγRIIb [2]) | He/Con_1a (FcγRIa [3]) | Ia/IIb He_1a/2b (FcγRIa [4]) [ratio] | He/Con_1a (FcγRIa [5]) | He/Con_2b (FcγRIIb [6])
1 | GpH7-A5/GpH7-B3 variant D265_01G/GpL16-k0 (antibody, human IgG1, kappa, He Ab: mutation only in the GpH7-B3 H chain; EU numbering; also called He Ab) heavy 1: not shown heavy 2: not shown light: DIVMTQSPLSLPVTPGEPASISCQASESLVHSNRNTYLHWYLQKPGQSPQLLIYKVSNRFSGVPDRFSGSGSGTDFTLKISRVEAEDVGVYYCSQNTHVPPTFGQGTKVEIERTVAAPSVFIFPPSDEQLKSGTASVVCLLNNFYPREAKVQWKVDNALQSGNSQESVTEQDSKDSTYSLSSTLTLSKADYEKHKVYACEVTHQGLSSPVTKSFNRGEC | 4.95 | 16.1 relative, HeCon Ab = 100 | 79.9 relative, HeCon Ab = 100 | – | – | –
2 | GpH7-A5/GpH7-B3 variant S267_09D/GpL16-k0 (antibody, human IgG1, kappa, Heterodimerized IgG1; mutation in the GpH7-B3 H chain only; also called He Ab) heavy 1: not shown heavy 2: not shown light: DIVMTQSPLSLPVTPGEPASISCQASESLVHSNRNTYLHWYLQKPGQSPQLLIYKVSNRFSGVPDRFSGSGSGTDFTLKISRVEAEDVGVYYCSQNTHVPPTFGQGTKVEIERTVAAPSVFIFPPSDEQLKSGTASVVCLLNNFYPREAKVQWKVDNALQSGNSQESVTEQDSKDSTYSLSSTLTLSKADYEKHKVYACEVTHQGLSSPVTKSFNRGEC | – | – | – | 0.35 | 110 % of control | 310 % of control
3 | GpH7-A5/GpH7-B3 variant S239_10E/GpL16-k0 (antibody, human IgG1, kappa, Heterodimerized IgG1; mutation in the GpH7-B3 H chain only; also called He Ab) heavy 1: not shown heavy 2: not shown light: DIVMTQSPLSLPVTPGEPASISCQASESLVHSNRNTYLHWYLQKPGQSPQLLIYKVSNRFSGVPDRFSGSGSGTDFTLKISRVEAEDVGVYYCSQNTHVPPTFGQGTKVEIERTVAAPSVFIFPPSDEQLKSGTASVVCLLNNFYPREAKVQWKVDNALQSGNSQESVTEQDSKDSTYSLSSTLTLSKADYEKHKVYACEVTHQGLSSPVTKSFNRGEC | – | – | – | 0.58 | 105 % of control | 181 % of control
4 | GpH7-A5/GpH7-B3 variant S239_09D/GpL16-k0 (antibody, human IgG1, kappa, Heterodimerized IgG1; mutation in the GpH7-B3 H chain only; also called He Ab) heavy 1: not shown heavy 2: not shown light: DIVMTQSPLSLPVTPGEPASISCQASESLVHSNRNTYLHWYLQKPGQSPQLLIYKVSNRFSGVPDRFSGSGSGTDFTLKISRVEAEDVGVYYCSQNTHVPPTFGQGTKVEIERTVAAPSVFIFPPSDEQLKSGTASVVCLLNNFYPREAKVQWKVDNALQSGNSQESVTEQDSKDSTYSLSSTLTLSKADYEKHKVYACEVTHQGLSSPVTKSFNRGEC | – | – | – | 0.49 | 101 % of control | 206 % of control
5 | GpH7-A5/GpH7-B3 variant V266_12R/GpL16-k0 (antibody, human IgG1, kappa, Heterodimerized IgG1; mutation in the GpH7-B3 H chain only; also called He Ab) heavy 1: not shown heavy 2: not shown light: DIVMTQSPLSLPVTPGEPASISCQASESLVHSNRNTYLHWYLQKPGQSPQLLIYKVSNRFSGVPDRFSGSGSGTDFTLKISRVEAEDVGVYYCSQNTHVPPTFGQGTKVEIERTVAAPSVFIFPPSDEQLKSGTASVVCLLNNFYPREAKVQWKVDNALQSGNSQESVTEQDSKDSTYSLSSTLTLSKADYEKHKVYACEVTHQGLSSPVTKSFNRGEC | – | – | – | -55.6 | 59.2 % of control | -1.1 % of control
6 | GpH7-A5/GpH7-B3 variant S267_19Q/GpL16-k0 (antibody, human IgG1, kappa, Heterodimerized IgG1; mutation in the GpH7-B3 H chain only; also called He Ab) heavy 1: not shown heavy 2: not shown light: DIVMTQSPLSLPVTPGEPASISCQASESLVHSNRNTYLHWYLQKPGQSPQLLIYKVSNRFSGVPDRFSGSGSGTDFTLKISRVEAEDVGVYYCSQNTHVPPTFGQGTKVEIERTVAAPSVFIFPPSDEQLKSGTASVVCLLNNFYPREAKVQWKVDNALQSGNSQESVTEQDSKDSTYSLSSTLTLSKADYEKHKVYACEVTHQGLSSPVTKSFNRGEC | – | – | – | 0.47 | 102 % of control | 218 % of control
7 | GpH7-A5/GpH7-B3 variant S267_03V/GpL16-k0 (antibody, human IgG1, kappa, Heterodimerized IgG1; mutation in the GpH7-B3 H chain only; also called He Ab) heavy 1: not shown heavy 2: not shown light: DIVMTQSPLSLPVTPGEPASISCQASESLVHSNRNTYLHWYLQKPGQSPQLLIYKVSNRFSGVPDRFSGSGSGTDFTLKISRVEAEDVGVYYCSQNTHVPPTFGQGTKVEIERTVAAPSVFIFPPSDEQLKSGTASVVCLLNNFYPREAKVQWKVDNALQSGNSQESVTEQDSKDSTYSLSSTLTLSKADYEKHKVYACEVTHQGLSSPVTKSFNRGEC | – | – | – | 0.55 | 106 % of control | 192 % of control
8 | GpH7-A5/GpH7-B3 variant D265_03V/GpL16-k0 (antibody, human IgG1, kappa, He Ab: mutation only in the GpH7-B3 H chain; EU numbering; also called He Ab) heavy 1: not shown heavy 2: not shown light: DIVMTQSPLSLPVTPGEPASISCQASESLVHSNRNTYLHWYLQKPGQSPQLLIYKVSNRFSGVPDRFSGSGSGTDFTLKISRVEAEDVGVYYCSQNTHVPPTFGQGTKVEIERTVAAPSVFIFPPSDEQLKSGTASVVCLLNNFYPREAKVQWKVDNALQSGNSQESVTEQDSKDSTYSLSSTLTLSKADYEKHKVYACEVTHQGLSSPVTKSFNRGEC | 17.3 | 3.2 relative, HeCon Ab = 100 | 55.7 relative, HeCon Ab = 100 | – | – | –
